Experiment: Pharmacokinetic studies of RHa-5 and RHa-15, single IV or SC administration, compared with RDV
Assay type: in vivo, animals (mammals)
Details: for C0, plasma GS-441524 / C0, plasma Remdesivir / F AUC(0-inf), plasma GS-441524 / F AUC(0-inf), plasma Remdesivir / F AUC(0-last), plasma GS-441524 / F AUC(0-last), plasma Remdesivir / Clast, plasma GS-441524 / Clast, plasma Remdesivir / t1/2last, plasma GS-441524 / t1/2last, plasma Remdesivir / tlast, plasma GS-441524 / tlast, plasma Remdesivir: 6.17 mg/kg Remdesivir equivalent; for F AUC(0-inf), plasma GS-441524 / F AUC(0-inf), plasma Remdesivir / F AUC(0-last), plasma GS-441524 / F AUC(0-last), plasma Remdesivir: relative to RDV IV
Description: Studies were undertaken to investigate the pharmacokinetic (PK) profile of two Remdesivir dendrimer conjugates following single intravenous (IV) or subcutaneous (SC) administration, and to compare them with that of Remdesivir (RDV).
The study consisted of two phases (PK Phase 1 and PK Phase 2) in a total of 6 animals (age 36-48 months) each part separated by a washout period: • PK Phase 1: Four animals (mammals) were studied. One male and one female were administered RHa-5 (BHALys [Lys]2[Lys]2[Lys]8[Lys]16[Lys]32[(α-NH-6N-TDA-Remdesivir)32(ε-NH-COPEG2000)32] 20% Remdesivir loading w/w) (test item) intravenously; and one male and one female were administered RHa-5 subcutaneously. Blood samples were taken over a period of 7 days. A minimum washout period of 14 days took place between the last blood sampling point of the PK Phase 1 and the start of PK Phase 2. • PK Phase 2: Six animals (mammals) were studied. One male and one female were administered RHa-15 (BHALys[Lys]2[Lys]4[Lys]8[Lys]16[Lys]32[(α-NH-3′ O-TDA-Remdesivir)32(ε-NH-COPEG2000)32] 18.63% Remdesivir loading w/w) (test item) intravenously; one male and one female were administered RHa-15 subcutaneously; and one male and one female were administered RDV (reference item). Blood samples were taken over a period of 7 days.
Formulation procedure: Test items RHa-5 and RHa-15 were reconstituted in Required volume of Water for injection (WFI), until a complete solution was obtained. The required volume of WFI was slowly added to RDV formulation (a lyophilate of 3.2% w/w RDV, 96.8% and sodium sulfobutylether-β-cyclodextrin adjusted to pH 3.5 with HCl) and shaken vigorously for 30 seconds. The solution was left for 20 minutes to ensure complete dissolution.
Administration: The clinical Remdesivir loading dose in humans is 200 mg. […] Allometric conversion of the dose from humans to small mammals results in an equivalent test dose of 6.17 mg/kg Remdesivir. Test item was administered as follows:
PK Phase 1: Two animal groups (A and B) of one male and one female each were administered test item RHa-5 at a Remdesivir equivalent dose of 6.17 mg/kg. Group A were administered the test item as a slow (30 seconds) intravenous bolus; and Group B were administered the test item over 30 seconds using the subcutaneous (SC) route into the back of the animal.
PK Phase 2: Three animal groups (C, D and E) of one male and one female each were included in this study phase. Groups C and D were administered test item RHa-15 at a Remdesivir equivalent dose of 6.17 mg/kg using the IV and SC routes, respectively. Group E were administered 6.17 mg/kg of RDV intravenously. IV administrations were done as a slow (30 seconds) bolus. SC administrations were done over 30 seconds.
Sampling schedule: Blood samples for PK analysis were collected as follows: • Day 1: pre-dose and at 15 min, 30 min, 1 h, 2 h, 4 h, 6 h, and 12 h after administration. • Days 2 to 8: 24, 48, 72, and 168 h after administration.
A blood volume of 2 mL was collected at each time point from the jugular vein with a 20-21G needle into a lithium heparin tube, and transferred into a tube containing 200 μL 0.15 M citric acid. Immediately following blood collection, the blood samples were mixed gently and kept on crushed ice until centrifugation at 1500 G for 10 min at 4° C. within 30 minutes of collection. Each plasma sample was stored frozen (˜80±10° C.).
The quantification range was 0.6 to 14400 ng/mL for Remdesivir and 0.6 to 14400 ng/mL for G441524.
Non-compartmental pharmacokinetic analysis was adopted to obtain the pharmacokinetic parameters from the blood concentration profiles.
The maximum concentration, Cmax, and time of maximum concentration, Tmax, were determined as the maximum measured concentration and its associated time. The area under the plasma concentration curve from 0 hours to the time of the last measurable concentration, AUC0-last, was calculated using linear trapezoidal estimation. […]

BHALys[Lys]2[Lys]4[Lys]8[Lys]16[Lys]32[(α-NH-6N-TDA-Remdesivir)32(ε-NH-COPEG2000)32] [RHa-5]
Release profile for plasma Remdesivir (IV and SC): excellent sustained release profile | C0, plasma GS-441524 (IV, female (4F)): 2 ng/mL | C0, plasma Remdesivir (IV, female (4F)): 4648 ng/mL | F AUC(0-inf), plasma GS-441524 (IV, female (4F)): 0.8 x-fold | F AUC(0-inf), plasma Remdesivir (IV, female (4F)): 605.7 x-fold | F AUC(0-last), plasma GS-441524 (IV, female (4F)): 0.8 x-fold | F AUC(0-last), plasma Remdesivir (IV, female (4F)): 667.2 x-fold | Clast, plasma GS-441524 (IV, female (4F; RDV 6F)): 3.7 ng/mL | Clast, plasma Remdesivir (IV, female (4F; RDV 6F)): 22.0 ng/mL | t1/2last, plasma GS-441524 (IV, female (4F; RDV 6F)): 39.6 h | t1/2last, plasma Remdesivir (IV, female (4F; RDV 6F)): 19.2 h | tlast, plasma GS-441524 (IV, female (4F; RDV 6F)): 168 h | tlast, plasma Remdesivir (IV, female (4F; RDV 6F)): 168 h | C0, plasma GS-441524 (IV, male (1M)): 2 ng/mL | C0, plasma Remdesivir (IV, male (1M)): 5701 ng/mL | F AUC(0-inf), plasma GS-441524 (IV, male (1M)): 0.9 x-fold | F AUC(0-inf), plasma Remdesivir (IV, male (1M)): 437.4 x-fold | F AUC(0-last), plasma GS-441524 (IV, male (1M)): 0.8 x-fold | F AUC(0-last), plasma Remdesivir (IV, male (1M)): 438.1 x-fold | Clast, plasma GS-441524 (IV, male (1M; RDV 3M)): 3.1 ng/mL | Clast, plasma Remdesivir (IV, male (1M; RDV 3M)): 98.7 ng/mL | t1/2last, plasma GS-441524 (IV, male (1M; RDV 3M)): 36.6 h | t1/2last, plasma Remdesivir (IV, male (1M; RDV 3M)): 29.5 h | tlast, plasma GS-441524 (IV, male (1M; RDV 3M)): 168 h | tlast, plasma Remdesivir (IV, male (1M; RDV 3M)): 168 h | C0, plasma GS-441524 (IV, mean of male and female): 2 ng/mL | C0, plasma Remdesivir (IV, mean of male and female): 5175 ng/mL | Clast, plasma GS-441524 (IV, mean of male and female): 3 ng/mL | Clast, plasma Remdesivir (IV, mean of male and female): 60 ng/mL | t1/2last, plasma GS-441524 (IV, mean of male and female): 38.1 h | t1/2last, plasma Remdesivir (IV, mean of male and female): 24.3 h | tlast, plasma GS-441524 (IV, mean of male and female): 168 h | tlast, plasma Remdesivir (IV, mean of male and female): 168 h | F AUC(0-inf), plasma GS-441524 (IV, mean): 0.8 x-fold | F AUC(0-inf), plasma Remdesivir (IV, mean): 521.6 x-fold | F AUC(0-last), plasma GS-441524 (IV, mean): 1 x-fold | F AUC(0-last), plasma Remdesivir (IV, mean): 553 x-fold | Clast, plasma GS-441524 (SC, female (5F)): 6.5 ng/mL | Clast, plasma Remdesivir (SC, female (5F)): 21.1 ng/mL | tlast, plasma GS-441524 (SC, female (5F)): 168 h | tlast, plasma Remdesivir (SC, female (5F)): 168 h | F AUC(0-last), plasma GS-441524 (SC, female (5F)): 0.7 x-fold | F AUC(0-last), plasma Remdesivir (SC, female (5F)): 113.8 x-fold | Clast, plasma GS-441524 (SC, male (2M)): 8.8 ng/mL | Clast, plasma Remdesivir (SC, male (2M)): 34.4 ng/mL | t1/2last, plasma GS-441524 (SC, male (2M)): 61.9 h | t1/2last, plasma Remdesivir (SC, male (2M)): 28.9 h | tlast, plasma GS-441524 (SC, male (2M)): 168 h | tlast, plasma Remdesivir (SC, male (2M)): 168 h | F AUC(0-inf), plasma GS-441524 (SC, male (2M)): 1.1 x-fold | F AUC(0-inf), plasma Remdesivir (SC, male (2M)): 146.8 x-fold | F AUC(0-last), plasma GS-441524 (SC, male (2M)): 1.0 x-fold | F AUC(0-last), plasma Remdesivir (SC, male (2M)): 146.9 x-fold | Clast, plasma GS-441524 (SC, mean): 7.7 ng/mL | Clast, plasma Remdesivir (SC, mean): 28 ng/mL | t1/2last, plasma GS-441524 (SC, mean): 61.9 h | t1/2last, plasma Remdesivir (SC, mean): 28.9 h | tlast, plasma GS-441524 (SC, mean): 168 h | tlast, plasma Remdesivir (SC, mean): 168 h | F AUC(0-inf), plasma GS-441524 (SC, mean): 1.1 x-fold | F AUC(0-inf), plasma Remdesivir (SC, mean): 147 x-fold | F AUC(0-last), plasma GS-441524 (SC, mean): 1 x-fold | F AUC(0-last), plasma Remdesivir (SC, mean): 130 x-fold | Plasma Remdesivir t1/2 and AUC compared to RDV delivered IV (delivered IV or SC): substantially extended plasma Remdesivir t1/2 and increased AUC
